Measurements taken from patent publication US7053041B1, “Methods and compositions useful for inhibition of αvβ5mediated angiogenesis” (The Scripps Research Institute, priority 1996, dated 2006).
[ ]: non-standard residue; d: D form.

Key:
integrin α5β1 = integrin α5β1 (Homo sapiens, UniProt P05556+P08648); settings: cited from earlier work
retinal vasculogenesis = test: newborn mouse model of retinal angiogenesis; type: in vivo
Procedure: For the model, newborn mice were injected subcutaneously twice daily for four days starting from day 0 with the cyclic peptide RGDfV (SEQ ID NO 4) (also referred to as peptide 203) or the control peptide RADfV (SEQ ID NO 5). On postnatal day five, globes were removed and fixed in 4.0% paraformaldehyde (PFA) at room temperature.
To quantitate mouse retinal angiogenesis, the distance from the optic nerve head to the most distal point of a single vessel selected in each of six equal sectors around a twelve hour clock was measured. The mean distance was calculated and averaged with similar data obtained from an entire litter. To measure the total volume of retinal blood vessels, the entire specimen was scanned in 2.0 μm optical sections and stored digitally. The “seed” function in Bio-Rad's Lasersharp software was then used to threshold and count cubic pixels in each section. A macro was written to sum the volume of all sections and determine the value for all vascular structures.

[1] = tested on: TNF-α mediated angiogenesis; test: chick CAM assay, TNF-α-induced angiogenesis; type: in vivo; settings: TNF-α 1.0 μg/ml; antibodies 75 μg per embryo, calphostin C 100 nM
Procedure: (§1) The above growth factors (cytokines), including bFGF and VEGF, were separately applied at a concentration of 1.0 μg/ml to the 10 day old CAM model as previously described. PMA was used at a concentration of 20 ng/ml.
(§2) After 24 hours after growth factor treatment, the antibodies, LM609 and P1F6, or the protein kinase C (PKC) inhibitor, calphostin C, were separately provided to the CAM model, either by a single intravascular dose as described above or by topical administration as described below in the next example. For intravascular injections over the next 3 day consecutive period, the antibodies were used at a concentration of 75 μg per embryo and the calphostin C was at a dosage of 100 nM.
(§3) On day 13, filter discs and associated CAM tissue were dissected and analyzed for angiogenesis with a stereo microscope. Angiogenesis was scored in a double blind manner by analyzing the number and extent of branching of the blood vessels within the area of the discs. The scores ranged from low (1) to high (4). The angiogenesis index was determined by subtracting a background score of 1 from all data. Experiments were repeated 2–4 times with 5–6 embryos per condition.

[2] = tested on: angiogenesis induced by PMA; test: chick CAM assay, PMA-induced angiogenesis; type: in vivo; settings: PMA 20 ng/ml; antibodies 75 μg per embryo, calphostin C 100 nM
Procedure: as §1, §2, §3

[3] = tested on: angiogenesis induced by TGF-α; test: chick CAM assay, TGF-α-induced angiogenesis; type: in vivo; settings: TGF-α 1.0 μg/ml; antibodies 75 μg per embryo, calphostin C 100 nM
Procedure: as §1, §2, §3

integrin α5β1, sequence (P08648 42-894 limits assumed): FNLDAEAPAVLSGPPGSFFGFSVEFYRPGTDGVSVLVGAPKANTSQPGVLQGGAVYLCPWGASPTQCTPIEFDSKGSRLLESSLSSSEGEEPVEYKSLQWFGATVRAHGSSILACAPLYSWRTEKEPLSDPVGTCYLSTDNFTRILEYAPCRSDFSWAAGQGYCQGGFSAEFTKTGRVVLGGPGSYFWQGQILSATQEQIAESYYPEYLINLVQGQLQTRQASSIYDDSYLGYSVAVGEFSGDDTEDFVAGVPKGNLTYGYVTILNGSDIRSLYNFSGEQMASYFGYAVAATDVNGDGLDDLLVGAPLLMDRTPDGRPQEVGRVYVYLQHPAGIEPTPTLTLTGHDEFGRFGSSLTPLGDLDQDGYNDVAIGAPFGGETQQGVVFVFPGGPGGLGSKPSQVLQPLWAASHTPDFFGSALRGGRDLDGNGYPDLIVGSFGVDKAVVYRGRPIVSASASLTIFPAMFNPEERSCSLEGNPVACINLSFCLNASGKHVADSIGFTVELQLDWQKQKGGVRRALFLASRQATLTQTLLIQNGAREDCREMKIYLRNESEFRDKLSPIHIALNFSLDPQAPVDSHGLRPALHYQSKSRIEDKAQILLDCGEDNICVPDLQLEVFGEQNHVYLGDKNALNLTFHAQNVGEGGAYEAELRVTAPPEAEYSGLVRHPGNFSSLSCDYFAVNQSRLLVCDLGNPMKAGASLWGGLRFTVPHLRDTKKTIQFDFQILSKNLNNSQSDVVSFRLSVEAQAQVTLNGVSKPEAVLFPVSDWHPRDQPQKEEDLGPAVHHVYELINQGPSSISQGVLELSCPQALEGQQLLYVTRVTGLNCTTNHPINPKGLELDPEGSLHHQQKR
integrin α5β1, sequence (P08648 895-1049 partner limits assumed): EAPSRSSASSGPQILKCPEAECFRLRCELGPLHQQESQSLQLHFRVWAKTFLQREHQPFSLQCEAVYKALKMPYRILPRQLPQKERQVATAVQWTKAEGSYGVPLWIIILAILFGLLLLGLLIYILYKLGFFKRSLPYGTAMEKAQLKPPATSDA
integrin α5β1, sequence (P05556 21-798): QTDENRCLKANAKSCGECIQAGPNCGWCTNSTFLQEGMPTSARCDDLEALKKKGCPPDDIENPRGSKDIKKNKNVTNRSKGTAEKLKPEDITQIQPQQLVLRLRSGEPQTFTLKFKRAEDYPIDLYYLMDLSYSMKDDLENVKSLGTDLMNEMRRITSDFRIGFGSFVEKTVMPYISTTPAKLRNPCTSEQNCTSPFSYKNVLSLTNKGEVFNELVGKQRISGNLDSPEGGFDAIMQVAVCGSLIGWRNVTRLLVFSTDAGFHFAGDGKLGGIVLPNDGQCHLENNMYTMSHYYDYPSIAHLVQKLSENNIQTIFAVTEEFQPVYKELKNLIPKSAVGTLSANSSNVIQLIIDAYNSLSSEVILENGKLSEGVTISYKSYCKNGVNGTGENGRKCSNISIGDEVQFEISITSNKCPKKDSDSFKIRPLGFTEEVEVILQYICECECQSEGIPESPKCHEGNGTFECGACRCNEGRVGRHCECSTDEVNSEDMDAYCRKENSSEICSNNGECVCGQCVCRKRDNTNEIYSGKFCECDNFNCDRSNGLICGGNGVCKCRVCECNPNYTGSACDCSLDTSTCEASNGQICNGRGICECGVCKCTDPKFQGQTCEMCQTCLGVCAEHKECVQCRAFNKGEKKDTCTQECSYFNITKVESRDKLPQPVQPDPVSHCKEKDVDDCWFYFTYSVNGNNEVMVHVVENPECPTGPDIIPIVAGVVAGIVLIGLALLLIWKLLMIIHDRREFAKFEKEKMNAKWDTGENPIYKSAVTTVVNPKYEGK

Molecule: cyclo(Arg-Ala-Asp-D-Phe-Val) (cyclo(RAD[dF]V); SMILES CC(C)[C@@H]1NC(=O)[C@@H](Cc2ccccc2)NC(=O)[C@H](CC(=O)O)NC(=O)[C@H](C)NC(=O)[C@H](CCCNC(=N)N)NC1=O) [peptide 69601, reference compound]
- inhibition of binding of fibrinogen to integrin α5β1 (integrin α5β1): not inhibit binding
- mean volume of retinal vessels (retinal vasculogenesis; postnatal day five): 15.7×10^6 μm^3
- difference in vessel growth between untreated five-day old mice and same aged treated mice (retinal vasculogenesis; two dimensions): no statistical difference

B1: LM609: mouse monoclonal antibody, anti-αvβ3 (antibody, V domains shown)
VH: EVQLEESGGGLVKPGGSLKLSCAASGFAFSSYDMSWVRQIPEKRLEWVAKVSSGGGSTYYLDTVQGRFTISRDNAKNTLYLQMSSLNSEDTAMYYCARHNYGSFAYWGQGTLVTVSA
VL: ELVMTQTPATLSVTPGDSVSLSCRASQSISNHLHWYQQKSHESPRLLIKYASQSISGIPSRFSGSGSGTDFTLSINSVETEDFGMYFCQQSNSWPHTFGGGTKLEIKRA
- effect on CAM angiogenesis in response to TNF-α (angiogenesis index) [1]: blocked angiogenesis
- effect on CAM angiogenesis induced by PMA (angiogenesis index) [2]: failed to do so
- effect on CAM angiogenesis induced by TGF-α (angiogenesis index) [3]: failed to do so
